{"source": "patent US10350158B2", "about": "“2′ fluoro-modified RNAs as immunostimulators” (DUKE UNIVERSITY, priority 2013, dated 2019)", "molecules": {"B1": {"name": "10F: 5′ppp 2′F pyrimidine ssRNA aptamer, 71 nt, human melanocytic cell-targeting, SEQ ID NO: 4 (nucleic acid)", "chain": "{ppp}-rGrGrGrArGrGrAfCrGrAfUrGfCrGrGfUrAfCfCfUrGrAfCrArGfCrAfUfCfUfUrGrAfUrArAfUrGrGfUfCfCfUrAfCrGrGrArGfCfCrGfUfUfCfCrArGrAfCrGrAfCfUfCrGfCfCfCrGrA"}}, "key": {"WM266-4 cells": {"tested_on": "WM266-4 cells", "assay": "Apoptosis / cell death by Annexin V-PE and 7-AAD flow cytometry", "format": "cell-based, human", "conditions": "aptamer treated with bacterial alkaline phosphatase (BAP), 0.125 μg/ml", "method": "For the intracellular delivery of immune stimulatory RNAs, RNAs were transfected with the DharmaFECT® Duo liposomal transfection reagent (Thermo Scientific, Waltham, Mass.) at a transfection reagent (μl):RNA (μg) ratio of 3.75:1, according to the manufacturer's instructions. Unless otherwise stated, for the induction of innate immune responses and apoptosis, immune stimulatory RNAs (500 ng/ml) were transfected into 50 to 70% confluent cells. Cells were incubated with an RNA-transfection agent complex for 5 h, followed by replenishment with fresh culture medium. […]\nGrowth inhibition relative to untreated cells was quantified at 72 h after RNA transfection using an MTT Cell Proliferation Assay Kit (Cayman Chemicals, Ann Arbor, Mich.), according to the manufacturer's instructions. The percent growth inhibition was calculated by using the following equation: % growth inhibition=([O.D.]untreated−[O.D.]treated)/[O.D.]untreated×100. The induction of cell death was measured 48 h after RNA transfection by flow cytometry after staining with Annexin V-PE and 7-Aminoactinomycin D (7-AAD) using the PE Annexin V Apoptosis Detection Kit I (BD Biosciences, San Jose, Calif.) and analyzed using the CellQuest software (BD Biosciences)."}, "human TLR3": {"target": "T1, human TLR3 (Homo sapiens, UniProt O15455)", "T1 construct": "host or cells: HEK293 (HEK-hTLR3-NFκB/SEAP)", "T1 sequence (O15455 24-904)": "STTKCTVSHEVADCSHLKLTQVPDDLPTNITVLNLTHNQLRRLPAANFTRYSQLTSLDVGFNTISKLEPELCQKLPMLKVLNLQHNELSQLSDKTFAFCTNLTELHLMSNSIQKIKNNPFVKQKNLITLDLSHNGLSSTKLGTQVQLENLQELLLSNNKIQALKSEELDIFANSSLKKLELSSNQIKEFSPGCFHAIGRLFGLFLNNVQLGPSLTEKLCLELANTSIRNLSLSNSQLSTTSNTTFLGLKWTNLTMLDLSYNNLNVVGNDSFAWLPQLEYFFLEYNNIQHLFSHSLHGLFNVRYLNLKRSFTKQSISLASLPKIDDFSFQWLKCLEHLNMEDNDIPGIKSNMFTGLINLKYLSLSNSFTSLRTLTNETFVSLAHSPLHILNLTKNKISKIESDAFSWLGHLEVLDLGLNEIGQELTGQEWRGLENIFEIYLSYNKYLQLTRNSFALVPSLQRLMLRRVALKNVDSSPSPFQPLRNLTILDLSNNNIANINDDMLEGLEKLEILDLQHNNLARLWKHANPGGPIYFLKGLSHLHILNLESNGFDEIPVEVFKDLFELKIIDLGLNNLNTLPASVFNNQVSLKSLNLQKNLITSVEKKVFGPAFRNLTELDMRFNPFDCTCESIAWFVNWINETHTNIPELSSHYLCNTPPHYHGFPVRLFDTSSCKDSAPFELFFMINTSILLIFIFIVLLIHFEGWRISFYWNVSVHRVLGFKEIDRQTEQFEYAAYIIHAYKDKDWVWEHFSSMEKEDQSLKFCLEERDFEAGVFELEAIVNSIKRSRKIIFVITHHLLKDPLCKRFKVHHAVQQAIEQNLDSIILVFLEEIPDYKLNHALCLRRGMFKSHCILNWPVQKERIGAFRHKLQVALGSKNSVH", "assay": "HEK-hTLR3-NFκB/SEAP reporter assay", "format": "cell-based", "conditions": "QUANTI-BLUE", "method": "The human TLR3 reporter cell, HEK-hTLR3-NFκB/SEAP was purchased from Invivogen. These cells were stably co-transfected with the human TLR3 gene and an inducible SEAP (secreted embryonic alkaline phosphatase) reporter gene into HEK293 cells. The SEAP gene is placed under the control of NF-κB and AP-1. […] SEAP gene expression was measured using the SEAP detection media QUANTI-BLUE (Invivogen), according to the manufacturer's instructions. FIG. 3B is a graph showing that TLR7 is not stimulated by the ssRNAs. Human TLR7-expressing HEK293 cells were kindly provided by Dr. Todd Brennan (Duke University, Durham, N.C.). Treatment with R848 but not with polyI:C, polyI:C-DF and 5′ppp 2′F 10F-DF complexes stimulated HEK-TLR7 cells to produce the inflammatory cytokine IL-8. The data represent the mean of two experiments. Error bars represent the S.D."}, "[1]": {"assay": "Serum stability in 10% fetal bovine serum, polyacrylamide gel", "format": "in vitro ADME", "conditions": "37° C., 0 to 24 h", "method": "(§1) FIG. 6A-FIG. 6D are a set of graphs showing that 2′F modification increases nuclease resistance, cytotoxicity and inflammatory cytokine induction of immunostimulatory 5′ppp ssRNAs. FIG. 6A is a graph showing ability of various modified ssRNAs to inhibit the growth of cells over concentration ranges. WM266-4 cells were treated with transfection reagent alone (mock) or the complex of transfection reagent and 5′ppp 10F containing 2′F pyrimidine, 2′OMe pyrimidine or unmodified pyrimidine (2′OH) at various concentrations. The viral dsRNA analog PolyI:C was used as an experimental control. Growth inhibition was assessed at 72 h post treatments using the MTT assay. FIG. 6B is a set of graphs showing cytokine induction after treatment with the indicated ssRNAs. WM266-4 cells were either treated with transfection reagent alone (mock) or the complex of transfection reagent and 5′ppp 2′OH 10F, 5′ppp 2′F 10F, 5′ppp 2′OMe 10F or poly I:C (0.5 μg/ml each). The secretion of IFNβ and IL-8 by the melanoma cells was analyzed at 24 h after treatment by ELISA. The data represent the mean of three experiments. Error bars represent the S.D.; *P<0.05 (5′ppp 2′F 10F vs 5′ppp 2′OH 10F); P<0.001 (5′ppp 2′OMe 10F vs 5′ppp 2′OH 10F). […] RNAs were analyzed on 12% polyacrylamide gels. […] At 4 h, 8, 12 and 24 h after transfection, total RNAs were isolated and cellular 10F RNA levels were analyzed by RT-PCR. […]"}, "WM266.4 cells": {"tested_on": "WM266.4 cells", "assay": "Cellular stability of transfected RNA by RT-PCR", "format": "in vitro ADME, human", "conditions": "4, 8, 12 and 24 h after transfection", "method": "as §1"}}, "note": "Strand notation (5' to 3'): a small letter for the sugar, then the base; units joined by * are phosphorothioate-linked, units joined directly phosphodiester-linked; [ ] holds rarer units or linkages, { } end groups; capitals alone tell only the bases. {ppp} = triphosphate; r = 2'-OH (RNA); f = 2'-fluoro"}
{"molecule": "B1", "values": [{"measurement": "apoptosis after dephosphorylation of the aptamer", "setting": "WM266-4 cells", "result": "partially prevented"}, {"measurement": "stimulation of TLR3 reporter cells (SEAP)", "setting": "human TLR3", "result": "not"}, {"measurement": "serum stability", "setting": "[1]", "result": "resistant to serum degradation"}, {"measurement": "cellular stability compared to unmodified RNAs", "setting": "WM266.4 cells", "result": "improve cellular stability"}]}
